Patent publication US20220403048A1, “BINDING MOLECULES TO ARGINASE II [ARG2]” (Cancer Research Technology Limited, priority 2019, published 2022)

Biological target: recombinant human trimeric ARG2 enzyme (construct not given) (human) (UniProt P78540)
Assay: cell-based or functional assay

recombinant human trimeric ARG2 enzyme (construct not given) (human), sequence (P78540 23-354, form in doubt): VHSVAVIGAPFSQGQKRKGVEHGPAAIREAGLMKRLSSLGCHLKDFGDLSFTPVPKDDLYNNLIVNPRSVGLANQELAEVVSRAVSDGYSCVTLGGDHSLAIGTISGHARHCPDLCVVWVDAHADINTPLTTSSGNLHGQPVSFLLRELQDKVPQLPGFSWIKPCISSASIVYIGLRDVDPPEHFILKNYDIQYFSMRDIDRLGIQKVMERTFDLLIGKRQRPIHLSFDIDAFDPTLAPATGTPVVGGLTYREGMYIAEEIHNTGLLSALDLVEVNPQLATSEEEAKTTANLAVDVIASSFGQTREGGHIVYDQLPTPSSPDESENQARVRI

EC50, In Presence of rhARG2 (T cell proliferation): > 2000 nM | Maximum % Proliferation, In Presence of rhARG2: 7%
Substance: NIP228 human IgG1 (antibody)
